# Square brackets hold non-standard residues; d marks the D form. Side chains are listed from the residue outwards. Ends that are not written are not given here. Peptide text beside a SMILES is read from it. * marks the point of attachment. DOTA = O=C(O)CN1CCN(CC(=O)O)CCN(CC(=O)*)CCN(CC(=O)O)CC1; dTyr(3-I) = N[C@H](Cc1ccc(O)c(I)c1)C(=O)O; 2Nal = N[C@@H](Cc1ccc2ccccc2c1)C(=O)O; Palmitoyl = CCCCCCCCCCCCCCCC(=O)*; dNMeOrn = CN[C@H](CCCN)C(=O)O; 4Amb = NCc1ccc(C(=O)O)cc1
# Legend:
# [1] = cited from earlier work
# [2] = in vivo; cited from earlier work
# [3] = format: in vitro ADME, human
# Method: Representative radiochromatograms are provided in Figure S25 for ^177Lu-1, ^177Lu-2, and ^177Lu-7. This included ^177Lu-9 despite its fatty acid chain.
# (§1) Figure 3 Stability of the ^177Lu ligands in human plasma at 37 °C, expressed as % of intact radioligand over time, assessed by radio-HPLC. The % of plasma protein binding (PPB) after 60 min incubation is provided in parenthesis and it is expressed as the % of radioligand in the protein fraction (pellet) versus the total activity in the plasma. TEXT PRINTED IN THE PICTURE: ^177Lu-1: PPB: 35% | ^177Lu-2: PPB: 22% | ^177Lu-5: PPB: 42% | ^177Lu-6: PPB: 38% | ^177Lu-7: PPB: 39% | ^177Lu-9: PPB: 37%
# To 1 mL of fresh human plasma, previously equilibrated at 37 °C, 500 pmol (8–10 MBq) of each ^177Lu-labeled ligand was added. The mixture was incubated at 37 °C for different time points (0, 15, 30, 60, and 120 min). At each time point, a 100 μL aliquot was removed and treated with 1.5 excess (v/v) of acetonitrile, to precipitate plasma proteins, followed by centrifugation for 5 min at 3500 rpm. The supernatant was collected and the process of protein precipitation was repeated. Afterward, 100 μL from the supernatant was taken, diluted with water at a ratio of 1:10 (v/v), and injected into radio-HPLC. The radioligand (in)stability was assessed by quantifying the percentage of intact radioligand over time.
# [4] = format: in vitro ADME; conditions: human, plasma, plasma protein binding (PPB)
# Method: as §1
# For the determination of plasma protein binding (PPB), 100 μL from the plasma incubated with the ^177Lu ligand was removed and measured in a γ-counter (total radioactivity). Protein precipitation and separation followed, as described above. The supernatant and the protein pellet were then measured in a γ-counter. The percentage of plasma protein binding was calculated as the ratio between the protein-bound radioactivity and the total radioactivity in the plasma.
# [5] = format: physicochemical; conditions: pH 7.4
# Method: In a prelubricated eppendorf tube, a presaturated mixture of 500 μL of octanol and 500 μL of phosphate-buffered saline (PBS) were added. 1 pmol of the ^177Lu-labeled ligand was pipetted into this mixture, vortexed for 30 min, and then centrifuged at 3000 rpm for 10 min to achieve phase separation. Aliquots of 100 μL were removed from the octanol and from the PBS phase and the activity measured in a γ-counter. The distribution coefficient was calculated as the average log ratio value of the radioactivity in the organic fraction and PBS fraction.
# Jurkat xenografts = format: in vivo, mouse; conditions: 1 h p.i., SPECT/CT or PET/CT
# Method: The ability of the ^177Lu ligands to target CXCR4 in vivo was assessed by SPECT/CT imaging in Jurkat xenografts. […] 1 h after injection, the remaining amount of radioligand in the body (and vice versa, the washout) was quantified by measuring the total body activity (mouse) in a dose calibrator. The % of the radioligand remaining in the body after 1 h is reported in Figure 6A as % of the remaining activity in reference to the injected activity (100%).
# Figure 6 SPECT/CT images as maximum intensity projections (MIPs) of Jurkat tumor-bearing mice at 1 h p.i. of ^177Lu-labeled ligands (200 pmol, ∼15 MBq). […] (B) Same SPECT/CT images of ^177Lu-1, ^177Lu-2, ^177Lu-5, and ^177Lu-6, adapted in a lower scale. T: tumor, L: liver, and K: kidneys. […] TEXT PRINTED IN THE PICTURE: (A) ^177Lu-1: Remaining Activity (% injected): 6 % | (A) ^177Lu-2: Remaining Activity (% injected): 7 % | (A) ^177Lu-5: Remaining Activity (% injected): 7 % | (A) ^177Lu-6: Remaining Activity (% injected): 8 % | (A) ^177Lu-7: Remaining Activity (% injected): 55 % | (A) ^177Lu-9: Remaining Activity (% injected): 94 %
# The experimental protocol involving animals was approved by the Veterinary Office (Department of Health) of the Cantonal Basel-Stadt (Approval No. 30515) in accordance with the Swiss regulations for animal treatment. Female athymic nude-Foxn1^nu/Foxn1^+ mice (Envigo, The Netherlands), 4–6 weeks old, were injected subcutaneously with 10^7 Jurkat cells in a 200 μL (1:1) mixture of PBS and Matrigel (CorningMatrigelMembrane matrix, Fischer Scientific, Germany) on the right shoulder. The tumors were allowed to grow for 3–4 weeks before commencement of the experiments.
# Nude mice bearing Jurkat xenografts were intravenously injected via the tail vein with ∼15 MBq (200 pmol) of the ^177Lu ligands and 8 MBq (200 pmol) of ^68Ga-7 were euthanized 1 h post injection (p.i.). The radioactivity in the syringe before and after injection was measured followed by measuring the amount of radioactivity remaining in the sacrificed mice. […]
# [6] = Shelf-life of 177Lu-labeled ligands at room temperature (radio-HPLC); format: physicochemical
# Method: The shelf-life of each ^177Lu-labeled ligand was monitored at room temperature up to 24 h after radiolabeling.
# The shelf-lives of ^177Lu-labeled ligands were assessed at room temperature (RT) in the buffer used for labeling, as described above. For the analysis, 5 μL was withdrawn at desired time points (0, 1, 2, 4, and 24 h) from the stock solution and mixed with 50 μL of the Ca-DTPA solution. 20 μL of this mixture was withdrawn and injected in RP-HPLC.
# Ghost-CXCR4 cells = test: Cellular uptake and distribution in Ghost-CXCR4 cells; format: cell-based, human; conditions: 37 °C, 60 min
# Method: Figure 4 In vitro assessment in Ghost-CXCR4 cells at 37 °C. […] Each experiment was performed in triplicate. Results are means ± SD [% of applied activity] from a minimum of two separate experiments. […] Cellular uptake was interrupted at 15, 30, and 60 min by removing the medium and washing twice with ice-cold PBS. The cell surface-bound radioligand was obtained by washing cells twice with ice-cold glycine buffer (pH 2.8) followed by a collection of the internalized fraction after treating the cells with 1 M sodium hydroxide (NaOH). The activity in each fraction was measured in a γ-counter. […] The results were expressed as a percentage of the applied radioactivity after subtracting the nonspecific uptake.
# [7] = cited from earlier work; remark: listed apart in the source
compound,measurement,setting,value
"CC[C@H](C)[C@H](N)C(=O)N[C@@H](CC(C)C)C(=O)N[C@@H](CCCNC(=N)N)C(=O)N[C@@H](Cc1c[nH]c2ccccc12)C(=O)N[C@@H](CO)C(=O)N[C@@H](CCCNC(=N)N)C(=O)N[C@@H](CCCCN)C(=O)N[C@@H](CC(C)C)C(=O)N1CCC[C@H]1C(=O)N[C@@H](CS)C(=O)N[C@H](C(=O)N[C@@H](CO)C(=O)O)C(C)C [JM#21, I^1LRWSRK^7LPCVS^12]",half-life in human plasma,[1],~6 min
"CN1C(=O)[C@@H](Cc2ccc(O)cc2)NC(=O)CNC(=O)[C@H](Cc2ccc3ccccc3c2)NC(=O)[C@H](CCCN=C(N)N)NC(=O)[C@H]1CCCNC(=O)c1ccc(CNC(=O)CN2CCN(CC(=O)[O-])CCN(CC(=O)[O-])CCN(CC(=O)[O-])CC2)cc1.[68Ga+3] [^68Ga-Pentixafor, cyclo(D-Tyr^1-D-[NMe]Orn^2(AMBS-(^68Ga-DOTA))-Arg^3-Nal^4-Gly^5)] (cyclo([2Nal]G[dY][dNMeOrn]([4Amb-DOTA])R))",activity in the blood,[2],1.08 ± 0.27 %IA/g
same,uptake in the kidneys,[2],3.06 ± 0.63 %IA/g
"CC[C@H](C)[C@H](N)C(=O)N[C@@H](CC(C)C)C(=O)N[C@@H](CCCNC(=N)N)C(=O)N[C@@H](Cc1c[nH]c2ccccc12)C(=O)N[C@@H](CO)C(=O)N[C@@H](CCCNC(=N)N)C(=O)N[C@@H](CCCCN)C(=O)N[C@@H](CC(C)C)C(=O)N1CCC[C@H]1C(=O)N[C@@H](CO)C(=O)N[C@H](C(=O)N[C@@H](CO)C(=O)N[C@@H](CCCCNC(=O)CN1CCN(CC(=O)O)CCN(CC(=O)O)CCN(CC(=O)O)CC1)C(=O)O)C(C)C [^177Lu-2, metal not drawn] (H-ILRWSRKLPSVSK(DOTA)-OH; N-terminus and C-terminus assumed)",time to complete degradation in human plasma,[3],60 min
same,fraction unbound at 60 min,[4],0.78
same,logD,[5],-3.23 ± 0.23
"CCCCCCCCCCCCCCCC(=O)N[C@@H](CCC(=O)O)C(=O)NCCCC[C@H](NC(=O)[C@H](CCCNC(=N)N)NC(=O)[C@H](CO)NC(=O)[C@H](Cc1c[nH]c2ccccc12)NC(=O)[C@H](CCCNC(=N)N)NC(=O)[C@H](CC(C)C)NC(=O)[C@H](N)CC(C)C)C(=O)N[C@@H](CCCCNC(=O)CN1CCN(CC(=O)O)CCN(CC(=O)O)CCN(CC(=O)O)CC1)C(N)=O [^177Lu-9, metal not drawn] (H-[dL]LRWSRK([Glu-Palmitoyl])K(DOTA)-NH2; N-terminus assumed)",visualization of CXCR4-expressing tumor xenograft by imaging,Jurkat xenografts,failed to visualize CXCR4-expressing tumors
same,metabolic stability in plasma (in words),"[3]; human, plasma",high metabolic stability in plasma up to 4 h
same,fraction unbound at 60 min,[4],0.63
same,radiochemical purity (%),[6]; 0 h after radiolabeling,96 ± 3%
same,radiochemical purity (%),[6]; 1 h after radiolabeling,96 ± 2%
same,radiochemical purity (%),[6]; 2 h after radiolabeling,94 ± 1%
same,radiochemical purity (%),[6]; 4 h after radiolabeling,93 ± 1%
same,cellular uptake (% of the applied activity),Ghost-CXCR4 cells,3.25 ± 0.06%
same,subcellular distribution (membrane-bound vs internalized),Ghost-CXCR4 cells,almost entirely internalized
same,logD,[5],0.29 ± 0.1
"CN1C(=O)[C@@H](Cc2ccc(O)c(I)c2)NC(=O)CNC(=O)[C@H](Cc2ccc3ccccc3c2)NC(=O)[C@H](CCCN=C(N)N)NC(=O)[C@H]1CCCNC(=O)c1ccc(CNC(=O)CN2CCN(CC(=O)O)CCN(CC(=O)O)CCN(CC(=O)O)CC2)cc1.[177Lu] [^177Lu-Pentixather, cyclo(3-iodo-D-Tyr^1-D-[NMe]Orn^2(AMBS-(^177Lu-DOTA)-Arg^3-Nal^4-Gly^5)] (cyclo([2Nal]G[dTyr(3-I)][dNMeOrn]([4Amb-DOTA])R))",plasma protein binding (PPB),[7],97%
LVRYTKKVPQVSTPTL [EPI-X4],half-life in human plasma,[1],17 min

# Reference: paper PMC10350915, “Development of a New Class of CXCR4-Targeting Radioligands Based on the Endogenous Antagonist EPI-X4 for Oncological Applications” (Journal of Medicinal Chemistry, 2023)
